Laboratory results from the Human Domainome abundance scans (Beltran et al. 2025).
± gives the uncertainty stated by the source.

B1: Protein maelstrom homolog, residues 3 to 71; numbered along this chain, Q96JY0 (parent)
chain: NRKASRNAYYFFVQEKIPELRRRGLPVARVADAIPYCSSDWALLREEEKEKYAEMAREWRAAQGKDPGP

Variants of: B1
Assay: abundance fitness (aPCA) (normalised: wild type 0, dead -1); higher = more abundant; growth selection in yeast, the domain comes from the species named
Conditions: Homo sapiens

Variant	abundance fitness
NRKASRNAYYFFVQEKIPELRRRGLPVARVADAIPYCSSDWALLREEEKEKYAEMAREWRAAQYKDPGP [G64Y]	0.181 ± 0.12
NRKASRNAYYFFVQEKIPELRRRGLPVARVADAIPYCSSDWALLREEEKEKYAEMAREWRAAQDKDPGP [G64D]	0.207 ± 0.091
NRKASRNAYYFFVQEKIPELRRRGLPVARVADAIPYCSSDWALLREEEKEKYAEMARGWRAAQGKDPGP [E58G]	-0.082 ± 0.063
NRKASRNAYYFFVQEKIPELRRRGLPVARVADAIPYCSSDWALLREEEKEKYAEMARRWRAAQGKDPGP [E58R]	-0.189 ± 0.057
NRKASRNAYYFFVQEKIPELRRRGLPVARVADAIPYCSSDWALLREEEKEKYAEMARWWRAAQGKDPGP [E58W]	-0.523 ± 0.12
NRKASRNAYYFFVQEKIPELRRRGLPVARVADAIPYCSSDWALLREEEKEKYAEMARIWRAAQGKDPGP [E58I]	-0.279 ± 0.14
NRKASRNAYYFFVQEKIPELRRRGLPVARVADAIPYCSSDWALLREEEKEKYAEMARMWRAAQGKDPGP [E58M]	-0.594 ± 0.17
NRKASRNAYYFFVQEKIPELRRRGLPVARVADAIPYCSSDWALLREEEKEKYAEMARYWRAAQGKDPGP [E58Y]	-0.972 ± 0.39
NRKASRNAYYFFVQEKIPELRRRGLPVARVADAIPYCSSDWALLREEEKEKYAEMARDWRAAQGKDPGP [E58D]	-0.09 ± 0.26
NRKASRNAYYFFVQEKIPELRRRGLPVARVADAIPYCSSDWALLREEEKEKYAEMARAWRAAQGKDPGP [E58A]	-0.086 ± 0.071
NRKASRNAYYFFVQEKIPELRRRGLPVARVADAIPYCSSDWALLREEEKEKYAEMARKWRAAQGKDPGP [E58K]	-0.014 ± 0.1
NRKASRNAYYFFVQEKIPELRRRGLPVARVADAIPYCSSDWALLREEEKEKYAEMARHWRAAQGKDPGP [E58H]	0.246 ± 0.18
NRKASRNAYYFFVQEKIPELRRRGLPVARVADAIPYCSSDWALLREEEKEKYAEMARPWRAAQGKDPGP [E58P]	-0.521 ± 0.16
NRKASRNAYYFFVQEKIPELRRRGLPVARVADAIPYCSSDWALLREEEKEKYAEMARQWRAAQGKDPGP [E58Q]	-0.17 ± 0.1
NRKASRNAYYFFVQEKIPELRRRGLPVARVADAIPYCSSDWALLREEEKEKYAEMARLWRAAQGKDPGP [E58L]	-0.165 ± 0.071
NRKASRNAYYFFVQEKIPELRRRGLPVARVADAIPYCSSDWALLREEEKEKYAEMARCWRAAQGKDPGP [E58C]	-0.245 ± 0.13
NRKASRNAYYFFVQEKIPELRRRGLPVARVADAIPYCSSDWALLREEEKEKYAEMARVWRAAQGKDPGP [E58V]	-0.256 ± 0.1
NRKASRNAYYFFVQEKIPELRRRGLPVARVADAIPYCSSDWALLREEEKEKYAEMARFWRAAQGKDPGP [E58F]	-0.319 ± 0.19
NRKASRNAYYFFVQEKIPELRRRGLPVARVADAIPYCSSDWALLREEEKEKYAEMARSWRAAQGKDPGP [E58S]	-0.24 ± 0.097
NRKASRNAYYFFVQEKIPELRRRGLPVARVADAIPYCSSDWALLREEEKEKYAEMARTWRAAQGKDPGP [E58T]	-0.392 ± 0.11

Variant	abundance fitness
NRKASRNAYYFFVQEKIPELRRRGLPVARVADAIPYCSSDWALLREEEKEKYAEMAREWRAAQGKEPGP [D66E]	-0.003 ± 0.06
NRKASRNAYYFFVQEKIPELRRRGLPVARVADAIPYCSSDWALLREEEKEKYAEMAREWRAAQGKCPGP [D66C]	-0.241 ± 0.11
NRKASRNAYYFFVQEKIPELRRRGLPVARVADAIPYCSSDWALLREEEKEKYAEMAREWRAAQGKAPGP [D66A]	-0.148 ± 0.071
NRKASRNAYYFFVQEKIPELRRRGLPVARVADAIPYCSSDWALLREEEKEKYAEMAREWRAADGKDPGP [Q63D]	-0.121 ± 0.13
NRKASRNAYYFFVQEKIPELRRRGLPVARVADAIPYCSSDWALLREEEKEKYAEMAREWRAAAGKDPGP [Q63A]	-0.018 ± 0.066
NRKASRNAYYFFVQEKIPELRRRGLPVARVADAIPYCSSDWALLREEEKEKYAEMAREWRAAWGKDPGP [Q63W]	-0.37 ± 0.091
NRKASRNAYYFFVQEKIPELRRRGLPVARVADAIPYCSSDWALLREEEKEKYAEMAREWRAARGKDPGP [Q63R]	0.054 ± 0.042
NRKASRNAYYFFVQEKIPELRRRGLPVARVADAIPYCSSDWALLREEEKEKYAEMAREWRAAPGKDPGP [Q63P]	-0.08 ± 0.067
NRKASRNAYYFFVQEKIPELRRRGLPVARVADAIPYCSSDWALLREEEKEKYAEMAREWRAAKGKDPGP [Q63K]	-0.019 ± 0.071
NRKASRNAYYFFVQEKIPELRRRGLPVARVADAIPYCSSDWALLREEEKEKYAEMAREWRAAVGKDPGP [Q63V]	-0.089 ± 0.059
NRKASRNAYYFFVQEKIPELRRRGLPVARVADAIPYCSSDWALLREEEKEKYAEMAREWRAASGKDPGP [Q63S]	0.091 ± 0.057
NRKASRNAYYFFVQEKIPELRRRGLPVARVADAIPYCSSDWALLREEEKEKYAEMAREWRAANGKDPGP [Q63N]	0.023 ± 0.083
NRKASRNAYYFFVQEKIPELRRRGLPVARVADAIPYCSSDWALLREEEKEKYAEMAREWRAAEGKDPGP [Q63E]	-0.046 ± 0.062
NRKASRNAYYFFVQEKIPELRRRGLPVARVADAIPYCSSDWALLREEEKEKYAEMAREWRAALGKDPGP [Q63L]	-0.321 ± 0.051
NRKASRNAYYFFVQEKIPELRRRGLPVARVADAIPYCSSDWALLREEEKEKYAEMAREWRAAFGKDPGP [Q63F]	-0.202 ± 0.16
NRKASRNAYYFFVQEKIPELRRRGLPVARVADAIPYCSSDWALLREEEKEKYAEMAREWRAAHGKDPGP [Q63H]	-0.31 ± 0.13
NRKASRNAYYFFVQEKIPELRRRGLPVARVADAIPYCSSDWALLREEEKEKYAEMAREWRAAGGKDPGP [Q63G]	0.126 ± 0.043
NRKASRNAYYFFVQEKIPELRRRGLPVARVADAIPYCSSDWALLREEEKEKYAEMAREWRAACGKDPGP [Q63C]	-0.255 ± 0.13
NRKASRNAYYFFVQEKIPELRRRGLPVARVADAIPYCSSDWALLREEEKEKYAEMAREWRAAYGKDPGP [Q63Y]	-0.242 ± 0.16
